Measured values as given in article PMC9307154.

Biological target: Bovine leukemia virus retropepsin (BLV-PR), mature recombinant protease (Bovine leukemia virus)
Assay: enzyme kinetics (initial rate against enzyme concentration); dimer to monomers; BLV-PR 5-200 nM (as monomer) preincubated 15 min at 25°C in reaction buffer (250 mM phosphate pH 5.6, 500 mM NaCl, 10 mM EDTA, 5 mM DTT, 1% glycerol, 1% DMSO), then 1 uM MA-CA fluorogenic substrate, 37°C, rate of the first 3 min, fit of quadratic Eq 1

“Bovine leukemia virus retropepsin (BLV-PR), mature recombinant protease (enzyme)” was tested. Which Kd did it give?
Its Kd is 0.16 µM.
